We go through 26 molecules from US20220235123A1 (UNIVERSITY OF TORONTO, published 2022).

Test [1] has as its target T1, recombinant human vascular endothelial growth factor (hVEGF) 121 (human, UniProt P15692 27-147).
T1 construct: mature; also called human VEGF-A121; hVEGF 121 isoform
T1 sequence (looked up): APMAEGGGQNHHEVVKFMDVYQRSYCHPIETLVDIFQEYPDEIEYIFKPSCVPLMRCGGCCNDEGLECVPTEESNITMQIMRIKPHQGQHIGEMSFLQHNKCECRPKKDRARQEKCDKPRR
As to the kind of experiment: Fab-ELISA: Fab titrated on wells coated with 2 ug/mL hVEGF-121, detected with anti-kappa-light-chain-HRP. From the text:
(§1) FIG. 4a-b. […] The bound Fabs were detected with anti-Kappa-light-chain-HRP-conjugated antibody (B).
A general note: In an ELISA, binding on a coated surface is turned into a signal by an enzyme label.

The target in test [2] is T1, recombinant human vascular endothelial …. The test can be described thus: Fab-ELISA: Fab titrated on wells coated with 2 ug/mL hVEGF-121, detected with anti-kappa-light-chain-HRP; Kd estimated from EC50.
Text: as §1

Test [3] concerns the target recombinant human vascular endothelial growth factor (hVEGF) 121 (human) (UniProt P15692). The test can be described thus: single point competitive phage-ELISA: residual binding of the Fab-phage to hVEGF after competition with 1 nM hVEGF.
Test [4] has as its target T1, recombinant human vascular endothelial …. As to the kind of experiment: SPR, off rate of hVEGF-121 binding. On the technique in general: In SPR one partner is held on a chip, and binding of the other changes the refractive index at the surface.
Test [5] shares this target. As to the kind of experiment: competitive Fab-ELISA (hVEGF).
The target is the same in test [6]. The test can be described thus: single point competitive phage-ELISA: residual binding of the Fab-phage to hVEGF after competition with 1 nM hVEGF.
The target in test [7] is T2, recombinant human VEGF 165 isoform (human, UniProt P15692 27-191).
T2 construct: mature
As to the kind of experiment: competitive ELISA in solution, 10 pM hVEGF-165, free VEGF read with Quantikine kit. From the text: Kd calculated from the data fitted with a 5 parameter asymmetric model with Prism software.

Test [8] concerns the target T1, recombinant human vascular endothelial …. As to the kind of experiment: competitive ELISA with soluble Fab (column 'Affinity measured by competitive ELISA'); hVEGF, isoform not told in the legend.
The target is the same in test [9]. The test can be described thus: competitive Fab-ELISA, data and fit for the Kd of panel A; x axis printed as LOG([Fab] nM) with ticks 10^-6 to 10^2; hVEGF, isoform not told.

Substitutions are numbered along the chain they refer to.

T2 sequence (P15692 other isoform, or with tags, fused parts or gaps): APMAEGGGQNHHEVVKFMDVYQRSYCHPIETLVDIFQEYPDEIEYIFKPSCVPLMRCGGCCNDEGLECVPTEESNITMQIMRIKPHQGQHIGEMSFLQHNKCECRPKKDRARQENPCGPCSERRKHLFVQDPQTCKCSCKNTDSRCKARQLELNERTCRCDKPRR

B1: FF0124-7 (Fab, V domains shown)
VH: EVQLVESGGGLVQPGGSLRLSCAASGFDLYYSYMHWVRQAPGKGLEWVASISSYSGYTSYADSVKGRFTISADTSKNTAYLQMNSLRAEDTAVYYCARGFYYGGWYGIDYWGQGTLVTVSS
VL: DIQMTQSPSSLSASVGDRVTITCRASQSVSSAVAWYQQKPGKAPKLLIYSASSLYSGVPSRFSGSRSGTDFTLTISSLQPEDFATYYCQQHYGPITFGQGTKVEIK
notes: also called FF0124-7 F2116
In the case of B1, in test [1], the EC50 (read off the curve) (as a rule, the concentration that produces a half-maximal response) is approximately 30 nM. Also, the Kd (as a rule, the concentration at which binding is half-saturated) in [2] is 33 nM.

B2: FF0124-2 (Fab, V domains shown)
VH: EVQLVESGGGLVQPGGSLRLSCAASGFDLYYSSMHWVRQAPGKGLEWVASISPSSSYTYYADSVKGRFTISADTSKNTAYLQMNSLRAEDTAVYYCARYYWWHSPFWAYSGLDYWGQGTLVTVSS
VL: B1 VL with H91S, Y92G, G93P, P94L, I95F
notes: seventh Fab of the naive library selection; also called FF0124-2 F2083; FF0124 Fab # 2
With B2, in [1], the “EC50 (read off the curve)” value was approximately 50 nM. The Kd in [2] was 47 nM.

B3: FF0124-5 (Fab, V domains shown)
VH: EVQLVESGGGLVQPGGSLRLSCAASGFDISSYYMHWVRQAPGKGLEWVASIYSYSGYTYYADSVKGRFTISADTSKNTAYLQMNSLRAEDTAVYYCARHSVYYWYGSYWYYPSSAMDYWGQGTLVTVSS
VL: DIQMTQSPSSLSASVGDRVTITCRASQSVSSAVAWYQQKPGKAPKLLIYSASSLYSGVPSRFSGSRSGTDFTLTISSLQPEDFATYYCQQFWAGYGLITFGQGTKVEIK
notes: also called FF0124-5 F2091
As for B3, the half-maximal effective concentration (EC50 (read off the curve)) in [1] was approximately 20 nM. In addition, the Kd in test [2] was 19 nM.

B4: FF0124-6 (Fab, V domains shown)
VH: EVQLVESGGGLVQPGGSLRLSCAASGFDIYYYSMHWVRQAPGKGLEWVASISSYSGYTSYADSVKGRFTISADTSKNTAYLQMNSLRAEDTAVYYCARYPYYYWAFDYWGQGTLVTVSS
VL: B3 VL with F91S, W92G, A93H, G94Y, Y95H, G96Y, L97P, I98F
notes: also called FF0124-6 F2094
As for B4, the “EC50 (read off the curve)” value in test [1] was approximately 20 nM. Further, the equilibrium dissociation constant (Kd) in test [2] was 25 nM.

B5: FF0124-4 (Fab, V domains shown)
VH: EVQLVESGGGLVQPGGSLRLSCAASGFDLYSYSIHWVRQAPGKGLEWVASIYSYSGYTYYADSVKGRFTISADTSKNTAYLQMNSLRAEDTAVYYCARGGWYALDYWGQGTLVTVSS
VL: DIQMTQSPSSLSASVGDRVTITCRASQSVSSAVAWYQQKPGKAPKLLIYSASSLYSGVPSRFSGSRSGTDFTLTISSLQPEDFATYYCQQGYGPFYSLITFGQGTKVEIK
notes: also called FF0124-4 F2088
As for B5, in [1], the “EC50 (read off the curve)” value is approximately 10 nM. In addition, the Kd in [2] was 11 nM.

B6: FF0117-A10 (Fab, V domains shown)
VH: EVQLVESGGGLVQPGGSLRLSCAASGFDLFHYSIHWVRQAPGKGLEWVAYIYPSYGYTYYADSVKGRFTISADTSKNTAYLQMNSLRAEDTAVYYCARHAWYYGWALDYWGQGTLVTVSS
VL: DIQMTQSPSSLSASVGDRVTITCRASQSVSSAVAWYQQKPGKAPKLLIYSASSLYSGVPSRFSGSRSGTDFTLTISSLQPEDFATYYCQQRGWYLFTFGQGTKVEIK
As to B6, the Residual binding of competitive phage-ELISA 1nM in test [3] was 7%.

B7: FF03033-5 (Fab, V domains shown)
VH: B6 VH with A106G
VL: DIQMTQSPSSLSASVGDRVTITCRASQGVGERVAWYQQKPGKAPKLLIYNASHLAGVPSRFSGSRSGTDFTLTISSLQPEDFATYYCQQRGWYLFTFGQGTKVEIK
notes: fifth generation Fab from the library based on FF0117-A5
Take B7: the koff (commonly the rate constant with which the complex falls apart) in test [4] came to 0.000168 s⁻¹.

B8: FF0117-A8 (Fab, V domains shown)
VH: B6 VH with Y103S
VL: B6 VL
notes: fourth generation Fab from the library based on FF0188-H5
B8: the Kd in [5] came to 0.13 nM. The “Residual binding of competitive phage-ELISA 1nM” value (“Residual binding” for short) in test [6] was determined as 17%.

B9: Variant 209 (Fab variant of Clone #201) (Fab, V domains shown)
VH: B6 VH with A106G
VL: DIQMTQSPSSLSASVGDRVTITCRASQDAAYGRVAWYQQKPGKAPKLLIYKASELYAGVPSRFSGSRSGTDFTLTISSLQPEDFATYYCQQRGWYLFTFGQGTKVEIKR
As for B9, the Kd in test [7] was determined as 0.028 nM.

B10: FF0117-A3 (Fab, V domains shown)
VH: B6 VH with Y103F
VL: B6 VL
notes: as for B8
With B10, the Kd in [5] came out at 0.06 nM. The “Residual binding” value in test [6] came to 7%.

B11: Variant 206 (Fab variant of Clone #201) (Fab, V domains shown)
VH: B6 VH with A106G
VL: DIQMTQSPSSLSASVGDRVTITCRASQAAYGRVAWYQQKPGKAPKLLIYDASELYAGVPSRFSGSRSGTDFTLTISSLQPEDFATYYCQQRGWYLFTFGQGTKVEIKR
notes: also called SI; No. 3
B11: in [7], the Kd was found to be 0.014 nM.

B12: Variant 219 (Fab variant of Clone #201) (Fab, V domains shown)
VH: B6 VH with A106G
VL: B11 VL with G31D, D50K
notes: also called SI; No. 9
Regarding B12, in [7], the Kd was found to be 0.012 nM.

B13: Variant 205 (Fab variant of Clone #201) (Fab, V domains shown)
VH: B6 VH with A106G
VL: B11 VL with D50K, A51D
For B13, the Kd in test [7] was found to be 0.062 nM.

B14: FF0188-B10 (Fab, V domains shown)
VH: B6 VH with Y103S, L107M
VL: B6 VL
notes: third generation Fab from libraries based on FF0158-C4; also called FF01088-B10
Consider B14, for which the dissociation constant Kd in [8] was found to be 0.41 nM. Besides, the “IC50 (read off the curve)” value in [9] is approximately 0.4 nM.

B15: FF0158-C4 (Fab, V domains shown)
VH: B6 VH with D28N, F30Y, H31Y, Y103S, L107M
VL: B6 VL
notes: Second generation Fab, Fab-phage in the single point assay; also called FF0158-C4 (2)
On to B15, for which, in test [8], the dissociation constant (Kd) turned out to be 0.15 nM. Also, in test [9], the “IC50 (read off the curve)” value was approximately 0.1 nM.

B16: FF03033-4 (Fab, V domains shown)
VH: B6 VH with A106G
VL: B7 VL with G28E, V29G, G30W, E31D, N50S, H53Q
notes: fifth generation Fab with one residue deleted near the end of CDR-L2; the text says FF03046-1 was made from it by putting the tyrosine back
In the case of B16, the koff in [4] is less than 1e-06 s⁻¹.

B17: Variant 212 (Fab variant of Clone #201) (Fab, V domains shown)
VH: B6 VH with H35D, A106G
VL: B11 VL with D50K
As to B17, the Kd in test [7] was determined as 1.28 nM.

B18: FF03033-3 (Fab, V domains shown)
VH: B6 VH with A106G
VL: B7 VL with G28F, E31Y, R32N, N50Q, H53S
notes: as for B7
Take B18: in test [4], the koff turned out to be 0.000146 s⁻¹.

B19: Variant 215 (Fab variant of Clone #201) (Fab, V domains shown)
VH: B6 VH with H31D, A106G
VL: B11 VL with D50K
As for B19, the Kd in [7] is 0.027 nM.

B20: Variant 220 (Fab variant of Clone #201) (Fab, V domains shown)
VH: B6 VH with A106G
VL: B11 VL with R32D, D50K
On to B20, for which the Kd in test [7] was 0.026 nM.

B21: FF03033-8 (Fab, V domains shown)
VH: B6 VH with A106G
VL: B7 VL with G28A, V29A, G30Y, E31G, N50K, H53E
notes: fifth generation Fab with one residue deleted near the end of CDR-L2; the text says FF03046-2 was made from it by putting the tyrosine back
With B21, the koff in test [4] was less than 1e-06 s⁻¹.

B22: Variant 213 (Fab variant of Clone #201) (Fab, V domains shown)
VH: B6 VH with S33D, A106G
VL: B11 VL with D50K
For the molecule B22, the Kd in test [7] is 0.091 nM.

B23: FF0117-A11 (Fab, V domains shown)
VH: B6 VH with Y103W
VL: B6 VL
notes: as for B8
Consider B23, for which the Kd in [5] was determined as 0.03 nM. Moreover, in test [6], the “Residual binding” value is 5%.

B24: FF0188-H5 (Fab, V domains shown)
VH: B6 VH with Y103S, L107M
VL: B6 VL
notes: third generation Fab, parent of the FF0117 library; also called FF0188-H5(2)
B24: the Kd in [5] is 0.4 nM; in test [8], 0.45 nM. In addition, in test [9], the “IC50 (read off the curve)” value is approximately 0.4 nM.

B25: FF03033-6 (Fab, V domains shown)
VH: B6 VH with A106G
VL: B7 VL with G28P, V29R, G30E, E31D, N50R, H53T
notes: as for B7
Take B25: the koff in test [4] was 0.000284 s⁻¹.

B26: FF03033-2 (Fab, V domains shown)
VH: B6 VH with A106G
VL: B7 VL with G28V, V29A, G30F, E31Y, R32N, N50D, H53I, A55N
notes: as for B7
Take B26: in test [4], the koff stood at 0.000236 s⁻¹.
